In paper PMC11646347:

B1: C-reactive protein, P02741 19-224 (natural protein)
chain: QTDMSRKAFVFPKESDTSYVSLKAPLTKPLKAFTVCLHFYTELSSTRGYSIFSYATKRQDNEILIFWSKDIGYSFTVGGSEILFEVPEVTVAPVHICTSWESASGIVEFWVDGKPRVRKSLKKGYTVGAEASIILGQEQDSFGGNFEGSQSLVGDIGNVNMWDFVLSPDEINTIYLGGPFSPNVLNWRALKYEVQGEVFTKPQLWP

Key:
streptavidin = streptavidin (UniProt P22629); experiment: native MS; native CZE online with ESI and a Q-Exactive UHMR Orbitrap; mixture of standard proteins and protein complexes; background electrolyte 25 mM ammonium acetate pH~7.0, sheath buffer 10 mM ammonium acetate pH~7.0; original sample (about 15 ng consumed) and a 50-fold dilution (0.1 ng CRP loaded)
[1] = target: T1, C-reactive protein, P02741; experiment: as above; conditions: remark: other sources report otherwise
T1 chain: B1 chain

Molecule	stoichiometry N (streptavidin)	stoichiometry N [1]
streptavidin (from UniProt P22629 25-183) (natural protein)	4	–
B1	–	5
